The labels stand for the following.
B1: Guanyl-specific ribonuclease Sa, P05798 (parent)
chain: DVSGTVCLSALPPEATDTLNLIASDGPFPYSQDGVVFQNRESVLPTQSYGYYHEYTVITPGARTRGTRRIITGEATQEDYYTGDHYATFSLIDQTC

The variants in the data set derive from B1. The settings on record: Kitasatospora aureofaciens, 25 °C, Urea, CD, structure 1RGG, whole UniProt chain shown.

On to R40E R63E R65A R68A R69A, for which, where the note is “pH 3, Glycine 30 mM”, the “ddG of mutation (higher = less stable)” value was -2.7 kcal/mol, the denaturant m value came out at 1.17 kcal/mol/M, the “denaturant midpoint (higher = more stable)” value (from here on “denaturant midpoint”) worked out at 4.5 M and the unfolding free energy is 5.3 kcal/mol. Also, for the setting “pH 7, MOPS 30 mM”, the “ddG of mutation (higher = less stable)” value is 2.5 kcal/mol, the denaturant m value worked out at 0.85 kcal/mol/M, the “denaturant midpoint” value turned out to be 4.6 M and the unfolding free energy stood at 3.9 kcal/mol.

D1K D17K E41K: under “pH 3, Glycine 30 mM”, the “ddG of mutation (higher = less stable)” value is -0.7 kcal/mol, the denaturant m value stood at 1.95 kcal/mol/M, the “denaturant midpoint” value came to 1.7 M and the unfolding free energy turned out to be 3.3 kcal/mol. For the same variant, under “pH 7, MOPS 30 mM”, the “ddG of mutation (higher = less stable)” value was 2.7 kcal/mol, the denaturant m value was 0.93 kcal/mol/M, the “denaturant midpoint” value is 4 M and the unfolding free energy is 3.7 kcal/mol.

Turning to D1K D17K E41K D25K E74K D79K, for the setting “pH 3, Glycine 30 mM”, the “ddG of mutation (higher = less stable)” value is -0.2 kcal/mol, the denaturant m value came to 2.25 kcal/mol/M, the “denaturant midpoint” value amounted to 1.2 M and the unfolding free energy came to 2.7 kcal/mol. In addition, under “pH 7, MOPS 30 mM”, the “ddG of mutation (higher = less stable)” value is -0.7 kcal/mol, the denaturant m value came out at 1.03 kcal/mol/M, the “denaturant midpoint” value turned out to be 6.9 M and the unfolding free energy stood at 7.1 kcal/mol.

Regarding D1K D17K E41K D25K E74K, where the note is “pH 3, Glycine 30 mM”, the “ddG of mutation (higher = less stable)” value was -0.9 kcal/mol, the denaturant m value worked out at 1.92 kcal/mol/M, the “denaturant midpoint” value was found to be 1.8 M and the unfolding free energy came to 3.5 kcal/mol. In addition, where the note is “pH 7, MOPS 30 mM”, the “ddG of mutation (higher = less stable)” value was 0.7 kcal/mol, the denaturant m value was 1.07 kcal/mol/M, the “denaturant midpoint” value was 5.3 M and the unfolding free energy amounted to 5.7 kcal/mol.

In the case of R40E R63E, under “pH 3, Glycine 30 mM”, the “ddG of mutation (higher = less stable)” value was -1.1 kcal/mol, the denaturant m value was 1.66 kcal/mol/M, the “denaturant midpoint” value is 2.2 M and the unfolding free energy came to 3.7 kcal/mol.

Regarding D1K D17K E41K D25K E74K D79K S31K, under “pH 3, Glycine 30 mM”, the “ddG of mutation (higher = less stable)” value came out at 0 kcal/mol, the denaturant m value is 2.37 kcal/mol/M, the “denaturant midpoint” value was 1.1 M and the unfolding free energy came out at 2.6 kcal/mol. For the setting “pH 7, MOPS 30 mM”, the “ddG of mutation (higher = less stable)” value is -0.2 kcal/mol, the denaturant m value was 1.15 kcal/mol/M, the “denaturant midpoint” value came to 5.7 M and the unfolding free energy came to 6.6 kcal/mol.

Take R40E: for the setting “pH 3, Glycine 30 mM”, the “ddG of mutation (higher = less stable)” value is -0.3 kcal/mol, the denaturant m value came out at 1.52 kcal/mol/M, the “denaturant midpoint” value came to 1.9 M and the unfolding free energy is 2.9 kcal/mol.

The values are drawn from FireProtDB (doi:10.1002/pro.370).
